Where “and” joins values, the source holds several entries; their conditions need not be identical. Equal values may be shown once. Read-outs that look alike come from different tables or passages of the source.
T1: human CD40L, membrane-bound on cells (human, UniProt P29965 1-261)
T1 sequence: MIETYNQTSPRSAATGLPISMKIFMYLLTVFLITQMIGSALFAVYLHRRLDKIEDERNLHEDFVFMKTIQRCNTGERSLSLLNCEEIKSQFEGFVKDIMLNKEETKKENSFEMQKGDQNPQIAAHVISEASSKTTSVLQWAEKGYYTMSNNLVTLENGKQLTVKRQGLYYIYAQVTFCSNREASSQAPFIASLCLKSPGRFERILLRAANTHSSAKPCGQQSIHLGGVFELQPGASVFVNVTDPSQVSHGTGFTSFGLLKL

T2: human isoleucine zipper-CD40L (IZ-hCD40L) (human, UniProt P29965 113-261)
T2 sequence: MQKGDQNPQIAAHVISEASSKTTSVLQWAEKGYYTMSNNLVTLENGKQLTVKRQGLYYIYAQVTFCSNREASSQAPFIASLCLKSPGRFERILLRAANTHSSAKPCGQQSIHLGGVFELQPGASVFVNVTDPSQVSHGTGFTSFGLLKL

T3: human CD40L monomer triple mutant (T211E, S222Y, H224K, [108-261]) (human, UniProt P29965 108-261)
T3 construct: also called monomeric human CD40L
T3 chain: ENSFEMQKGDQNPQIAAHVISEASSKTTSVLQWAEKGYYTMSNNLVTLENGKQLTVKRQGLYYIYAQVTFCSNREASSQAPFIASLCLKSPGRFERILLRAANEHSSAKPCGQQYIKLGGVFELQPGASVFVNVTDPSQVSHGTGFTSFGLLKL


Tests used:
[1] = biological target: T1, human CD40L, membrane-bound on cells; experiment: cell-based or functional assay
[2] = biological target: human isoleucine zipper-CD40L (IZ-hCD40L) (human) (UniProt P29965); experiment: cell-based or functional assay
[3] = biological target: T2, human isoleucine zipper-CD40L …; experiment: cell-based or functional assay
[4] = biological target: T1, human CD40L, membrane-bound on cells; experiment: cell-based or functional assay; remark: listed apart in the source
[5] = biological target: T3, human CD40L monomer triple mutant …; experiment: SPR; dAb-CT-long captured on anti-human IgG Fc surface, CD40L monomer as analyte

Row | Binder | CHO-hCD40L-driven DC Activation IL-12 EC50 [1] | CHO-hCD40L-driven Human B Cell Proliferation EC50 [1] | T-B cell MLR EC50 [1] | hIZCD40L-driven Human B Cell Proliferation EC50 [2] | T-B cell MLR IL-6 EC50 [1] | hIZCD40L-driven Human B Cell Proliferation EC50 [3] | CHO-hCD40L-driven DC Activation IL-12 EC50 [4] | CHO-hCD40L-driven Human B Cell Proliferation EC50 [4] | T-B cell MLR EC50 [4] | T-B cell MLR IL-6 EC50 [4] | binding result [5] | other results
1 | 2h572-6 Fc (Fc fusion, not shown: a dimerising Fc or GST) EVQLLESGGGLVQPGGSLRLSCAASGFTFNWQLMGWVRQAPGKGLEWVSGIEGPGDVTYYADSVKGRFTISRDNSKNTLYLQMNSLRAEDTAVYYCVKVGKESNSDYRGQGTLVTVSS | 0.22 nM | 3 nM | 1.9 nM | 0.6 nM |  |  |  |  |  |  |  | 
2 | 2h572-619-Ctshort Fc (Fc fusion, not shown: a dimerising Fc or GST) EVQLLESGGGLVQPGGSLRLSCAASGFTFNWQLMGWVRQAPGKGLEWVSGIEGPGDVTYYADSVKGRFTISRDNSKNTLYLQMNSLRAEDTAVYYCVKVGKDSRSDYRGQGTLVTVSS | 1.8 nM | 2 nM | 0.4 nM | 1.5 nM | 0.3 nM |  |  |  |  |  |  | 
3 | 2h572-608-N297Qshort Fc (Fc fusion, not shown: a dimerising Fc or GST) EVQLLESGGGLVQPGGSLRLSCAASGFTFNWELMGWARQAPGKGLEWVSGIEGPGDVTYYADSVKGRFTISRDNSKNTLYLQMNSLRAEDTAVYYCVKVGKESNSDYRGQGTLVTVSS | 0.93 nM | 2 nM |  | 1 nM |  |  |  |  |  |  |  | 
4 | 2h572-635-CT Long Fc (Fc fusion, not shown: linker and CT Long Fc (CT-L2)) EVQLLESGGGLVQPGGSLRLSCAASGFTFNWELMGWARQAPGKGLEWVSGIEGPGDVTYYADSVKGRFTISRDNSKNTLYLQMNSLRAEDTAVYYCVKVGKDSKSDYRGQGTLVTVSS |  |  |  |  |  | 3 nM | 1.6 nM | 2 nM | 0.149 nM | 0.13 nM | no binding | 
5 | 2h572-608-CT Long Fc (Fc fusion, not shown: linker and CT Long Fc (CT-L2)) EVQLLESGGGLVQPGGSLRLSCAASGFTFNWELMGWARQAPGKGLEWVSGIEGPGDVTYYADSVKGRFTISRDNSKNTLYLQMNSLRAEDTAVYYCVKVGKESNSDYRGQGTLVTVSS |  |  |  |  |  | 2 nM | 1.6 nM | 2 nM | 0.468 nM | 0.38 nM | no binding | 
6 | 2h572-6-CT Long Fc (Fc fusion, not shown: linker and CT Long Fc (CT-L2)) EVQLLESGGGLVQPGGSLRLSCAASGFTFNWQLMGWVRQAPGKGLEWVSGIEGPGDVTYYADSVKGRFTISRDNSKNTLYLQMNSLRAEDTAVYYCVKVGKESNSDYRGQGTLVTVSS |  |  |  |  |  | 1 nM | 3 nM | 6 nM | 13.6 nM | 8.1 nM | no binding | 
7 | 2h572-614-CT Long Fc (Fc fusion, not shown: linker and CT Long Fc (CT-L2)) EVQLLESGGGLVQPGGSLRLSCAASGFTFNWQLMGWVRQAPGKGLEWVSGIEGPGDVTYYADSVKGRFTISRDNSKNTLYLQMNSLRAEDTAVYYCVKVGKDAKSDYRGQGTLVTVSS |  |  |  |  |  | 2 nM | 1.4 nM | 2 nM | 0.283 nM | 0.25 nM | no binding | 
8 | 2h572-619-Ctlong Fc (Fc fusion, not shown: linker and CT Long Fc (CT-L2)) EVQLLESGGGLVQPGGSLRLSCAASGFTFNWQLMGWVRQAPGKGLEWVSGIEGPGDVTYYADSVKGRFTISRDNSKNTLYLQMNSLRAEDTAVYYCVKVGKDSRSDYRGQGTLVTVSS |  |  |  |  |  | 1.6 nM | 1.4 nM | 2 nM | 0.72 nM | 0.43 nM | no binding | CHO-hCD40L-driven DC Activation IL-6 EC50 [4]: 1.5 nM; CHO-hCD40L-driven DC Activation IL-23 EC50 [4]: 1.5 nM; CHO-hCD40L-driven DC Activation TNF EC50 [4]: 2 nM
9 | 2h503-1 Fc (Fc fusion, not shown: a dimerising Fc or GST) DIQMTQSPSSLSASVGDRVTITCRASHHIQRYLSWYQQKPGKAPKLLILWGSQLQSGVPSRFSGSGSGTDFTLTISSLQPEDFATYYCGQWWAPPQTFGQGTKVEIKR | 2.8 nM | 60 nM | 45 nM | 4 nM |  |  |  |  |  |  |  | 
10 | 2h116-1320-Fc (Fc fusion, not shown: a dimerising Fc or GST) DIQMTQSPSSLSAYVGDRVTITCRASQPIGPDLLWYQQKPGKAPKLLIYQTSILRSGVPSRFSGSGSETDFTLTISNLQPEDFAKYYCQQYWAFPVTFGQGTKVVIKR | 14 nM | > 130 nM | 244 nM | 13 nM |  |  |  |  |  |  |  | 

Continued, in another order:

Row | CHO-hCD40L-driven DC Activation IL-12 EC50 [1] | CHO-hCD40L-driven Human B Cell Proliferation EC50 [1] | T-B cell MLR EC50 [1] | hIZCD40L-driven Human B Cell Proliferation EC50 [2] | T-B cell MLR IL-6 EC50 [1] | hIZCD40L-driven Human B Cell Proliferation EC50 [3] | CHO-hCD40L-driven DC Activation IL-12 EC50 [4] | CHO-hCD40L-driven Human B Cell Proliferation EC50 [4] | T-B cell MLR EC50 [4] | T-B cell MLR IL-6 EC50 [4] | binding result [5] | Binder | other results
11 | 0.13 nM | 0.7 nM | 6 nM | 1 nM |  |  |  |  |  |  |  | 2h719-2 Fc (Fc fusion, not shown: a dimerising Fc or GST) EVQLLESGGGLVQPGGSLRLSCAASGFTFKRYEMMWVRQAPGKGLEWVSSISSDGSFTYYADSVKGRFTISRDNSKNTLYLQMNSLRAEDTAVYYCAEPFTEFDYWGHGTLVTVSS | 
12 | 0.66 nM | 1.7 nM |  | 1.8 nM |  |  |  |  |  |  |  | 2h719-202-N297Qshort Fc (Fc fusion, not shown: a dimerising Fc or GST) EVQLLESGGGLVQPGGSLRLSCAASGFTFKKYEMMWVRQAPGKGLEWVSSISSDGSFTYYADSVKGRFTISRDNSKNTLYLQMNSLRAEDTAVYYCAEPFTEFDYWGHGTLVTVSS | 
13 | 1.2 nM | 1 nM | 0.226 nM and 0.216 nM | 0.9 nM | 0.1 nM |  |  |  |  |  |  | 2h572-619-N297Qshort Fc (Fc fusion, not shown: a dimerising Fc or GST) EVQLLESGGGLVQPGGSLRLSCAASGFTFNWQLMGWVRQAPGKGLEWVSGIEGPGDVTYYADSVKGRFTISRDNSKNTLYLQMNSLRAEDTAVYYCVKVGKDSRSDYRGQGTLVTVSS | 
14 | 1.1 nM | 2 nM | 0.48 nM and 0.474 nM | 0.98 nM | 0.22 nM and 0.11 nM |  |  |  |  |  |  | 2h572-619-N297Qlong Fc (Fc fusion, not shown: a dimerising Fc or GST) EVQLLESGGGLVQPGGSLRLSCAASGFTFNWQLMGWVRQAPGKGLEWVSGIEGPGDVTYYADSVKGRFTISRDNSKNTLYLQMNSLRAEDTAVYYCVKVGKDSRSDYRGQGTLVTVSS | 
15 | 2.3 nM | 1 nM | 0.161 nM | 5 nM | 0.13 nM |  |  |  |  |  |  | 2h572-633-CT-Fc SP5 (Fc fusion, not shown: a dimerising Fc or GST) EVQLLESGGGLVQPGGSLRLSCAASGFTFNWELMGWARQAPGKGLEWVSGIEGPGDVTYYADSVKGRFTISRDNSKNTLYLQMNSLRAEDTAVYYCVKVGKDAKSDYRGQGTLVTVSS | CHO-hCD40L-driven DC Activation IL-6 EC50 [1]: 1.5 nM; CHO-hCD40L-driven DC Activation TNF EC50 [1]: 2.9 nM
16 | 0.445 nM | 2.5 nM | 0.16 nM | 2 nM | 0.11 nM |  |  |  |  |  |  | 2h572-635 Fc (Fc fusion, not shown: a dimerising Fc or GST) EVQLLESGGGLVQPGGSLRLSCAASGFTFNWELMGWARQAPGKGLEWVSGIEGPGDVTYYADSVKGRFTISRDNSKNTLYLQMNSLRAEDTAVYYCVKVGKDSKSDYRGQGTLVTVSS | 
17 | 0.42 nM | 3.5 nM | 0.23 nM | 3 nM | 0.19 nM |  |  |  |  |  |  | 2h572-634 Fc (Fc fusion, not shown: a dimerising Fc or GST) EVQLLESGGGLVQPGGSLRLSCAASGFTFNWELMGWARQAPGKGLEWVSGIEGPGDVTYYADSVKGRFTISRDNSKNTLYLQMNSLRAEDTAVYYCVKVGKDSRSDYRGQGTLVTVSS | 
18 | 0.34 nM | 3 nM | 0.15 nM | 3.5 nM | 0.11 nM |  |  |  |  |  |  | 2h572-633 Fc (Fc fusion, not shown: a dimerising Fc or GST) EVQLLESGGGLVQPGGSLRLSCAASGFTFNWELMGWARQAPGKGLEWVSGIEGPGDVTYYADSVKGRFTISRDNSKNTLYLQMNSLRAEDTAVYYCVKVGKDAKSDYRGQGTLVTVSS | 
19 |  |  |  |  |  | 3 nM | 1.9 nM | 1 nM | 0.174 nM | 0.13 nM | no binding | 2h572-633-CT Long Fc (Fc fusion, not shown: linker and CT Long Fc (CT-L2)) EVQLLESGGGLVQPGGSLRLSCAASGFTFNWELMGWARQAPGKGLEWVSGIEGPGDVTYYADSVKGRFTISRDNSKNTLYLQMNSLRAEDTAVYYCVKVGKDAKSDYRGQGTLVTVSS | CHO-hCD40L-driven DC Activation IL-6 EC50 [4]: 1.3 nM; CHO-hCD40L-driven DC Activation IL-23 EC50 [4]: 1.2 nM; CHO-hCD40L-driven DC Activation TNF EC50 [4]: 1.7 nM

From patent US20160075790A1 (Bristol-Myers Squibb, published 2016)
